Values of other authors, collected in paper PMC7826847.
Like-named read-outs stand apart in the source and are kept apart here.

Tests used:
Nectin-3 [1] = molecular target: Nectin-3 (UniProt Q9NQS3)
Nectin-3 [2] = molecular target: Nectin-3 (UniProt Q9NQS3); remark: listed apart in the source

Sequence of Nectin-3 (Q9NQS3 58-404): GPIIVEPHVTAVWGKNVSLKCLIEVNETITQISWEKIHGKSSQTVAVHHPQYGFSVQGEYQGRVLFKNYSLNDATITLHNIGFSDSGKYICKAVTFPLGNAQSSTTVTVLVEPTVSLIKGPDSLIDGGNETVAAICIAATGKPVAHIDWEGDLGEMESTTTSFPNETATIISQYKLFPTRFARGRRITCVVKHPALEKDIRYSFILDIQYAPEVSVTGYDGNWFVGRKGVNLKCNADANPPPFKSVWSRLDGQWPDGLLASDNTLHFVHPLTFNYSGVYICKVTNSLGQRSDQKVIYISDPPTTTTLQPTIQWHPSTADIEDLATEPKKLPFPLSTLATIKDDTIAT
Sequence of Nectin-2 (Q92692 32-360): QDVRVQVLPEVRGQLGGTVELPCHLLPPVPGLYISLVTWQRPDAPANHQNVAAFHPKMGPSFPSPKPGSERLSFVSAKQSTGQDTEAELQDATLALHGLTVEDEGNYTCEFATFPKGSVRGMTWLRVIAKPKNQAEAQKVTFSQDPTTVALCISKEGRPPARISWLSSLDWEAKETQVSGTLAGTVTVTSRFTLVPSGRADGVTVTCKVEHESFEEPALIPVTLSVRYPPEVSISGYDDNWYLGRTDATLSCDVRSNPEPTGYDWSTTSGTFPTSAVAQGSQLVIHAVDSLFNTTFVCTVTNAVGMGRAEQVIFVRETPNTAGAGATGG
Sequence of Nectin-1 (Q15223 31-355): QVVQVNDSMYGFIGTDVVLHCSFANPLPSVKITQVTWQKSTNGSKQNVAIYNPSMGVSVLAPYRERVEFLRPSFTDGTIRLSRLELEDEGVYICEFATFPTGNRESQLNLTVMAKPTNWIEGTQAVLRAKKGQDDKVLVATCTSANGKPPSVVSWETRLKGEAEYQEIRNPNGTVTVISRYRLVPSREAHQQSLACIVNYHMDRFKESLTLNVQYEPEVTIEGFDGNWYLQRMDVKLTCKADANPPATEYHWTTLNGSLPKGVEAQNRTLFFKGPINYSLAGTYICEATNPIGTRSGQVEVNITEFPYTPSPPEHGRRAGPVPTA

Row | Kd (Nectin-3 [1]) [nM] | Kd (Nectin-3 [2]) [nM] | Substance
1 | 2.3 |  | Nectin-1 (from UniProt Q15223)
2 |  | 360 | Nectin-2 (from UniProt Q92692)
